The labels stand for the following.
B1: TPR t1 (parent)
chain: GACCAAUCUGCCCUCAGAGCUCGAGAACAUCUUCGGAUGCAGAGGAGGCAGGCUUCGGUGGCGCGAUAGCGCCAACGUCCUCAACCUCCAAUGCAUCCCACCACAUGAUGAUGCCUGAAGAGCCUUGGUUUUUUG

The variants in the data set derive from B1. The experiment in a line: polymerase ribozyme fitness, log enrichment relative to wild type (log ratio); higher = more active; in vitro selection for triplet polymerase activity. The gist of the method:
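A heterodimeric triplet polymerase ribozyme had each of its subunits mutagenized by PCR into a library, which was transcribed. One round of in vitro selection, done in triplicate, annealed each library with a biotinylated primer, its partner subunit and triplets, then incubated it frozen at −7 °C before gel excision of extended constructs, streptavidin-bead capture and RT-PCR. Fitness is the logarithm of genotype enrichment relative to wild-type enrichment, based on Illumina sequencing of inputs and outputs and inverse-variance-weighted replicate averages. A base-2 logarithm is used, and genotypes were kept only with ≥10 input reads and ≥1 read per output.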
G61U A121C: the “polymerase ribozyme fitness (log ratio)” value came out at 1.94.

With G61U A121G, the “polymerase ribozyme fitness (log ratio)” value worked out at 2.12.

For the variant G61A G120U G135U, the “polymerase ribozyme fitness (log ratio)” value was -0.818.

On to G61C C94U U112A, for which the “polymerase ribozyme fitness (log ratio)” value is -1.52.

G60U G120C: the “polymerase ribozyme fitness (log ratio)” value came out at 1.43.

In the case of G61A G93C C97A C104A, the “polymerase ribozyme fitness (log ratio)” value was -6.04.

On to G60U U106A, for which the “polymerase ribozyme fitness (log ratio)” value is -0.529.

G60C U78A G110A A111U C124A U133A: the “polymerase ribozyme fitness (log ratio)” value is -2.76.

Consider G61A A83U A90G, for which the “polymerase ribozyme fitness (log ratio)” value came to 0.0238.

Consider G60C C64G A90G A105C G117C G128A U133C U134G, for which the “polymerase ribozyme fitness (log ratio)” value is -4.98.

As for G61A G117C, the “polymerase ribozyme fitness (log ratio)” value was -2.99.

G61A G117A: the “polymerase ribozyme fitness (log ratio)” value was -0.803.

Take G61C G135U: the “polymerase ribozyme fitness (log ratio)” value is -2.53.

In the case of G60U U130A, the “polymerase ribozyme fitness (log ratio)” value was -0.92.

As for G60U U130G, the “polymerase ribozyme fitness (log ratio)” value is -0.482.

With G60U C62U G117U, the “polymerase ribozyme fitness (log ratio)” value was -5.73.

Regarding G61A G77C U96A, the “polymerase ribozyme fitness (log ratio)” value is -1.55.

On to G60U C79A, for which the “polymerase ribozyme fitness (log ratio)” value is -0.593.

In the case of G61A C80U, the “polymerase ribozyme fitness (log ratio)” value was -1.03.

G60U G63A: the “polymerase ribozyme fitness (log ratio)” value is -4.69.

On to G60U G63U, for which the “polymerase ribozyme fitness (log ratio)” value is -4.69.

Consider G60C C64U, for which the “polymerase ribozyme fitness (log ratio)” value is -5.26.

G60U U81A: the “polymerase ribozyme fitness (log ratio)” value was -0.347.

With G61A C101G, the “polymerase ribozyme fitness (log ratio)” value was -1.59.

For the variant G61A C101A, the “polymerase ribozyme fitness (log ratio)” value was -0.787.

In the case of G61A U78A U126G, the “polymerase ribozyme fitness (log ratio)” value was -2.02.

On to G60U A90C, for which the “polymerase ribozyme fitness (log ratio)” value is -1.12.

Turning to G60C C86A C97G U116C, the “polymerase ribozyme fitness (log ratio)” value is -4.3.

In the case of G61A A83G, the “polymerase ribozyme fitness (log ratio)” value was -1.47.

G61A A83C: the “polymerase ribozyme fitness (log ratio)” value is -0.418.

G61C C80A U109G: the “polymerase ribozyme fitness (log ratio)” value was -6.27.

With G61C C79G U92A G117U, the “polymerase ribozyme fitness (log ratio)” value is -6.69.

With G61A A83U G117C, the “polymerase ribozyme fitness (log ratio)” value was -4.17.

G61A A84C C88G: the “polymerase ribozyme fitness (log ratio)” value came out at 0.0148.

As to G61C U132A, the “polymerase ribozyme fitness (log ratio)” value is -1.81.

Turning to G61A G135U, the “polymerase ribozyme fitness (log ratio)” value is -0.801.

With G61A U81G, the “polymerase ribozyme fitness (log ratio)” value is -3.89.

Consider G61A A121C, for which the “polymerase ribozyme fitness (log ratio)” value was 1.95.

For G60U G93U, the “polymerase ribozyme fitness (log ratio)” value was -1.03.

For the variant G60U C114U C123U, the “polymerase ribozyme fitness (log ratio)” value was -3.67.

Take G61A A118C G120C U126G: the “polymerase ribozyme fitness (log ratio)” value was -4.35.

With G60U C115A, the “polymerase ribozyme fitness (log ratio)” value came out at 0.226.

As to G61C A75G U81G, the “polymerase ribozyme fitness (log ratio)” value was -4.25.

For the variant G60U G71C, the “polymerase ribozyme fitness (log ratio)” value was -3.38.

Regarding G60U G71U, the “polymerase ribozyme fitness (log ratio)” value was -1.98.

On to G61A C89U, for which the “polymerase ribozyme fitness (log ratio)” value was -0.458.

Turning to G61A G128A, the “polymerase ribozyme fitness (log ratio)” value is -1.69.

In the case of G61C G110C, the “polymerase ribozyme fitness (log ratio)” value was -5.94.

Take G61C G110A: the “polymerase ribozyme fitness (log ratio)” value is -3.32.

Turning to G61A C97G, the “polymerase ribozyme fitness (log ratio)” value was -3.34.

With G61U A100C U133G, the “polymerase ribozyme fitness (log ratio)” value is -1.29.

As to G60U A75U G117C, the “polymerase ribozyme fitness (log ratio)” value is -3.72.

Consider G61A A74U C101G G120C, for which the “polymerase ribozyme fitness (log ratio)” value was -2.7.

With G61A C72G, the “polymerase ribozyme fitness (log ratio)” value was 0.08.

For G60C U96A, the “polymerase ribozyme fitness (log ratio)” value was -1.77.

In the case of G60U C80A, the “polymerase ribozyme fitness (log ratio)” value is -3.33.

On to G60C C73U, for which the “polymerase ribozyme fitness (log ratio)” value is -1.41.

On to G61A U131C, for which the “polymerase ribozyme fitness (log ratio)” value is -0.691.

Consider G61A U131G, for which the “polymerase ribozyme fitness (log ratio)” value was -0.0143.

Turning to G61A C79U C115A G120A, the “polymerase ribozyme fitness (log ratio)” value was -0.74.

Turning to G61C C102U G122A C124A, the “polymerase ribozyme fitness (log ratio)” value is -3.47.

As for G60C C94G U116C C123U, the “polymerase ribozyme fitness (log ratio)” value was -3.28.

On to G60C G110A, for which the “polymerase ribozyme fitness (log ratio)” value was -1.

With G61C G117C, the “polymerase ribozyme fitness (log ratio)” value was -3.51.

As for G61C G117U, the “polymerase ribozyme fitness (log ratio)” value is -4.38.

With G61C G77C C79U, the “polymerase ribozyme fitness (log ratio)” value is -0.228.

In the case of G60U G120A U126A, the “polymerase ribozyme fitness (log ratio)” value is -0.262.

Regarding G61A U81G U116G C124A, the “polymerase ribozyme fitness (log ratio)” value was -2.39.

Turning to G60U G110C C123U, the “polymerase ribozyme fitness (log ratio)” value is -5.58.

With G60U C86A, the “polymerase ribozyme fitness (log ratio)” value was -0.471.

Regarding G60C C102A G110A, the “polymerase ribozyme fitness (log ratio)” value is -4.88.

On to G60U G61A, for which the “polymerase ribozyme fitness (log ratio)” value is -0.341.

For G60U G61U, the “polymerase ribozyme fitness (log ratio)” value was -1.93.

On to G60U C89G C101U U112A C115U, for which the “polymerase ribozyme fitness (log ratio)” value was -4.63.

Regarding G61C C62G G63C U112A, the “polymerase ribozyme fitness (log ratio)” value is -4.63.

G61U C80A C101A: the “polymerase ribozyme fitness (log ratio)” value is -4.47.

As to G60U G71A U92G C123A, the “polymerase ribozyme fitness (log ratio)” value is -6.18.

Turning to G61C C82A G110A G127A, the “polymerase ribozyme fitness (log ratio)” value was -3.64.

Consider G61C G71A, for which the “polymerase ribozyme fitness (log ratio)” value was -4.05.

As for G61C G71U, the “polymerase ribozyme fitness (log ratio)” value was -3.13.

In the case of G61U A74U G127U, the “polymerase ribozyme fitness (log ratio)” value was -4.02.

On to G61A U116G G128U, for which the “polymerase ribozyme fitness (log ratio)” value was -3.71.

As to G61C C80A G107U C114U G127C, the “polymerase ribozyme fitness (log ratio)” value was -5.81.

As to G61A C73U U78A C114A, the “polymerase ribozyme fitness (log ratio)” value is -2.49.

Source of the values: the RNAGym collection of RNA variant scans (doi:10.1073/pnas.2313332121).
